Molecular target: autotaxin (ENPP2/NPP2) (Homo sapiens) (UniProt Q13822)
Assay: inhibition
[1] = NPP2 assay, no inhibition up to 1.0 uM

## ACACTCACAGGCGCTGGNNNNNNNNNNNNNNNNNNNNNNNNNNNNNNCGTGCATGGCCGCTAGT [DNA pool (SEQ 17)]
[1]
  IC50: > 1000 nM

## GTGGTCTAGCTGTACTCNNNNNNNNNNNNNNNNNNNNNNNNNNNNNNNNNNNNNNNNCCACAGTCAACGAGCTA [40N DNA pool (SEQ 1)]
LysoPLD assay, table says 40N only (which pool not stated)
  IC50: > 1000 nM
[1]
  IC50: > 1000 nM
